Consider two molecules from patent publication US20220064276A1 (SCHOLAR ROCK, published 2022).

Residue numbers refer to the chain shown, from its start. Like-named read-outs stand apart in the source and are kept apart here.

Test [1] deals with T1, LTBP-proTGFβ1: transfected human proTGFβ1 presented by endogenous LTBP1/3 of LN229 cells (human). The test can be described thus: cell-based or functional assay.
For test [2], the target named is T2, mouse LTBP1-proTGFβ1 complex (mouse, UniProt Q8CG19 339-1712; P04202 30-390). The test can be described thus: cell-based or functional assay.
Test [3] has as its target T1, LTBP-proTGFβ1: transfected human …. The test can be described thus: cell-based or functional assay. This is another data set of the same source.
The target in test [4] is T2, mouse LTBP1-proTGFβ1 complex. Briefly: cell-based or functional assay. This is another data set of the same source.
The target of test [5] is T3, human LTBP1-proTGFβ1 complex (human, UniProt Q14766 347-1721; P01137 30-390).
T3 construct: Large latent complex: one presenting molecule disulfide-linked to a proTGFβ1 dimer; also called Hu LTBP1-proTGFβ1; huLTBP1 proTGFβ1
The test can be described thus: Octet BLI, IgG captured. As for the experimental part: (§1) LTBP complex-specific antibodies from the first round of affinity maturation/optimization (SR-AB14, SR-AB16, SR-AB17, SR-AB18, SR-AB19) were selected for a second round of affinity maturation/optimization (i.e., CDR-H3 mutagenesis as described herein) and particular progeny antibodies (SR-AB20, SR-AB21, SR-AB22, SR-AB23, SR-AB24, SR-AB25, SR-AB26, SR-AB27, SR-AB28, and SR-AB29) were assessed for their ability to bind various proTGFβ1 constructs. Binding affinities of the optimized antibodies were measured by Octet against human LTBP1-proTGFβ1, human LTBP3-proTGFbl, mouse LTBP1-proTGFβ1, mouse LTBP3-proTGFbl, and GARP-proTGFβ1 complexes, essentially as described in Example 6. […] The antigens were allowed to associate for 3 minutes followed by a 5-minute dissociation. Kinetics buffer (ForteBio®) was used throughout the experiment, and KD was determined using a 1:1 fitting model for each antibody antigen pair.
In general terms: In BLI a coated tip is dipped into the sample, and binding shifts an interference pattern.

Test [6] concerns the target T4, human LTBP3-proTGFβ1 complex (human, UniProt Q9NS15 44-1303; P01137 30-390, limits assumed).
T4 construct: Exemplary entries; also called Hu LTBP3-proTGFβ1; huLTBP3 proTGFb1
The test can be described thus: Octet BLI, IgG captured. As for the experimental part: as §1

The target in test [7] is T2, mouse LTBP1-proTGFβ1 complex. Briefly: Octet BLI, IgG captured. How it is done: as §1
The target of test [8] is T3, human LTBP1-proTGFβ1 complex. Briefly: Octet binning; competitor (immobilized second antibody) SR-AB1. How it is done:
(§2) 500 nM of human LTBP1-proTGFb1 complex was pre-incubated with 1 μM of each test antibody. After an overnight incubation, the LTBP1-proTGFβ1+first antibody was tested for binding to a second antibody which was immobilized to an Anti-Human IgG Fc Capture (AHC) sensor tip at 67 nM. The sensor tip was blocked with a negative control antibody (HuNeg) before seeing the LTBP1-proTGFβ1+first antibody.
(§3) Normalized responses less than 70% or less than 0.7 of the uninhibited interaction were considered antibodies that cross block.

For test [9] the target is unchanged. Briefly: Octet binning; competitor (immobilized second antibody) SR-AB2. As for the experimental part: as §2, §3
Test [10] shares this target. Briefly: Octet binning; competitor (immobilized second antibody) SR-AB10. As for the experimental part:
as §2, §3

For test [11] the target is unchanged. Briefly: Octet binning; competitor (immobilized second antibody) SR-AB13. How it is done:
as §2, §3

Test [12] deals with T5, mouse LTBP3-proTGFβ1 complex (mouse, UniProt Q61810 41-1245; P04202 30-390, limits assumed).
T5 construct: Exemplary entries; also called Mo LTBP3-proTGFβ1; Murine LTBP3 proTGFb1
Briefly: Octet (bio-layer interferometry), yeast expressed IgG1Agly antibody, antigen at a single 100 nM per Example 6.

The target of test [13] is T6, human GARP-proTGFβ1 complex (human, UniProt Q14392 18-627; P01137 30-390, limits assumed).
T6 construct: Exemplary entries; also called Hu GARP-proTGFβ1; huGARP proTGFb1
Described as above.

For test [14], the target named is T3, human LTBP1-proTGFβ1 complex. The test can be described thus: Octet (bio-layer interferometry), yeast expressed IgG1Agly antibody, antigen at a single 100 nM per Example 6, 1:1 fit; value printed under the panel.
Test [15] deals with T4, human LTBP3-proTGFβ1 complex. Described as above.
For test [16], the target named is T2, mouse LTBP1-proTGFβ1 complex. The description is as above.
Test [17] addresses T4, human LTBP3-proTGFβ1 complex. Briefly: SPR Biacore 8K, Fab over captured antigen. The gist of the method: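 Biotinylated antigen complexes captured on a Biotin CAPture chip (10 nM, ~200 RU), with Fab fragments injected as analyte by multi-cycle kinetics and regeneration between cycles. Runs in HBS-EP+ pH 7.4, 0 nM analyte as reference; ka, kd and KD from a global 1:1 binding fit.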

Test [18] has as its target T3, human LTBP1-proTGFβ1 complex. The test can be described thus: SPR Biacore 8K, Fab over captured antigen; mean of 4. How it is done: (§4) A Biacore 8K system was employed to determine the monovalent binding affinity and the kinetic parameters for antigen binding of test antibodies. Association and dissociation kinetics of Fab fragments SR-AB42-HuFab, SR-AB63-HuFab and SR-AB43-HuFab to antigen complexes were measured, and resulting ka, kd and KD are provided below. Briefly, the binding kinetics were evaluated by surface plasmon resonance using Biacore 8K (GE Healthcare). Biotinylated capture antigens were immobilized to the chip (10 nM, ˜200 RU loading). A Biotin CAPture sensor chip was used to capture the biotinylated antigens. […] 0 nM was used as a reference. […] 0 nM was used as a reference. Multi-cycle kinetics was employed where each analyte concentration was injected in a separate cycle and the sensor chip surface was regenerated after each cycle. A11 the assays were carried out in freshly prepared 1× HBS-EP+ buffer (10 mM HEPES, 150 mM NaCl, 3 mM EDTA, 0.05% Tween20, pH 7.4). Data were fit globally to a 1:1 binding model to obtain the kinetic parameters. The sensorgram for 0 nM analyte concentration was used as reference.

The target in test [19] is T6, human GARP-proTGFβ1 complex. Briefly: SPR Biacore 8K, Fab up to 100 nM over captured antigen. As for the experimental part:
as §4
For orientation: Surface plasmon resonance follows binding to a sensor surface in real time, without labels.

For test [20], the target named is T7, human LRRC33-proTGFβ1 complex (human, UniProt Q86YC3 19-650; P01137 30-390, limits assumed).
T7 construct: Exemplary entries; also called huLRRC33 proTGFb1; HuLRRC33-ProTGFb1
The test is described as above. How it is done:
as §4

Test [21] concerns the target T3, human LTBP1-proTGFβ1 complex. The test can be described thus: SPR (Biacore 8K), biotinylated antigen captured, Fab as analyte, 1:1 fit (Example 9); table beside the sensorgrams. As for the experimental part: as §4
Test [22] deals with T4, human LTBP3-proTGFβ1 complex. The description is as above. How it is done:
as §4

T6 sequence (Q14392 18-627 limits assumed, chain 1 of 2): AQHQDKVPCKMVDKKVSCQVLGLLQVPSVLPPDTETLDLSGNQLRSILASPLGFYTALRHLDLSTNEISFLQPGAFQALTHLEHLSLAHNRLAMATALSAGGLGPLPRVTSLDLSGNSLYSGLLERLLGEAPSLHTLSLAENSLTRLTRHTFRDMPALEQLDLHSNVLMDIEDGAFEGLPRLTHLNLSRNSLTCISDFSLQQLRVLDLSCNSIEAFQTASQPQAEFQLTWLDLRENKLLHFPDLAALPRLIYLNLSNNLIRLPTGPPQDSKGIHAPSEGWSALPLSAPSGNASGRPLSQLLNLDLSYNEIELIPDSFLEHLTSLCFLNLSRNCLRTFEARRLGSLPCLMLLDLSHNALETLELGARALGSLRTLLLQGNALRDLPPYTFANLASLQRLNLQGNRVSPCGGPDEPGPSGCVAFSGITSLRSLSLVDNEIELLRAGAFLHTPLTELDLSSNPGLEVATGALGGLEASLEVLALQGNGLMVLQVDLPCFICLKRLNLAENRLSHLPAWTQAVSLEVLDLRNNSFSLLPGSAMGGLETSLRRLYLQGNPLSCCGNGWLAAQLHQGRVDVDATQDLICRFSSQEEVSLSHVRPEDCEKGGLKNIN
T6 sequence (P01137 30-390 limits assumed, chain 2 of 2): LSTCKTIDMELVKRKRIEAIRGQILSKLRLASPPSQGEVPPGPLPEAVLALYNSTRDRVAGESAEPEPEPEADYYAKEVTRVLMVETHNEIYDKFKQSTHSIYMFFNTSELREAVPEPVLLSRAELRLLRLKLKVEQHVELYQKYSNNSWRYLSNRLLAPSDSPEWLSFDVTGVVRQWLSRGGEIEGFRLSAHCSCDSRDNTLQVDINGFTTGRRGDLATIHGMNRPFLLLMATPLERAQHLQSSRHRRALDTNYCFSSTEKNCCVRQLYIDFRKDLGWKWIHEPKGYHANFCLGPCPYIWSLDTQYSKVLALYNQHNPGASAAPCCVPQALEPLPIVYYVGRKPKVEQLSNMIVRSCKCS
T3 sequence (Q14766 347-1721 limits assumed, chain 1 of 2): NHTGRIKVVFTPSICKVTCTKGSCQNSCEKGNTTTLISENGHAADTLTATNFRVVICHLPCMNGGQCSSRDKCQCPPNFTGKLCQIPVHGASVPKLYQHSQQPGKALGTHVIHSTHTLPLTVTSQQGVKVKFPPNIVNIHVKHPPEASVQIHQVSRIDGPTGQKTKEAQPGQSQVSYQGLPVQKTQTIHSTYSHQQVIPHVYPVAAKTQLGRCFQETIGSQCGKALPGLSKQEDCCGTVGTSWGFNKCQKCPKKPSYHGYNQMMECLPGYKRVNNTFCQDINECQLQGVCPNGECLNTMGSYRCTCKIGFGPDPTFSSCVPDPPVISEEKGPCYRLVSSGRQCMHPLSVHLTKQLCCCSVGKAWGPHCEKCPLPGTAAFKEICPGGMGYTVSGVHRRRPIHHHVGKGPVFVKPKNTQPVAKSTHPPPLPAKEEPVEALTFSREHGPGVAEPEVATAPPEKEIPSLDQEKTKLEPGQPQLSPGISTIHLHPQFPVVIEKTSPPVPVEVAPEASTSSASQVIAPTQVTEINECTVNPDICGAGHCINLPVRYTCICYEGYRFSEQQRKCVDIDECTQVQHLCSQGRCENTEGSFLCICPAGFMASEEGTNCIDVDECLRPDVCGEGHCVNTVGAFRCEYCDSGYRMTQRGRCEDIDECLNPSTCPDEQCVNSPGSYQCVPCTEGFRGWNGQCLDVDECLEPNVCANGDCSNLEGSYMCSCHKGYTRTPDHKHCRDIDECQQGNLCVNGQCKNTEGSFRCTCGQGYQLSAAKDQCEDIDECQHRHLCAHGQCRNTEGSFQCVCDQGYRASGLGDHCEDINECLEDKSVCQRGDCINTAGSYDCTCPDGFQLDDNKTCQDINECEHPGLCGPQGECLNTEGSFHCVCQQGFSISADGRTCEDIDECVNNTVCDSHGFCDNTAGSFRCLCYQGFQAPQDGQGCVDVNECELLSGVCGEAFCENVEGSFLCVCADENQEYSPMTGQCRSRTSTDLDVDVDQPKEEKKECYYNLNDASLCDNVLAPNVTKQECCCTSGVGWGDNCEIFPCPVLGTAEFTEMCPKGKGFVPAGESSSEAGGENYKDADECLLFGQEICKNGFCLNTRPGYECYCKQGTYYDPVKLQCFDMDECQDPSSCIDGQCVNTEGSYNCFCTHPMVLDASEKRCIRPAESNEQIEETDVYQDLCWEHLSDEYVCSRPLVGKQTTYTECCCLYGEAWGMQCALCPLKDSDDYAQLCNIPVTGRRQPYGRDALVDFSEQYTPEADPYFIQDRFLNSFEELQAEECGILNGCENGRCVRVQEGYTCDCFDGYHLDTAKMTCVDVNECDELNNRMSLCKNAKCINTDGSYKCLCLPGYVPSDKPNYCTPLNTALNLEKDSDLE
T3 sequence (P01137 30-390 limits assumed, chain 2 of 2): as the sequence (P01137 30-390 limits assumed, chain 2 of 2) above
T4 sequence (Q9NS15 44-1303 limits assumed, chain 1 of 2): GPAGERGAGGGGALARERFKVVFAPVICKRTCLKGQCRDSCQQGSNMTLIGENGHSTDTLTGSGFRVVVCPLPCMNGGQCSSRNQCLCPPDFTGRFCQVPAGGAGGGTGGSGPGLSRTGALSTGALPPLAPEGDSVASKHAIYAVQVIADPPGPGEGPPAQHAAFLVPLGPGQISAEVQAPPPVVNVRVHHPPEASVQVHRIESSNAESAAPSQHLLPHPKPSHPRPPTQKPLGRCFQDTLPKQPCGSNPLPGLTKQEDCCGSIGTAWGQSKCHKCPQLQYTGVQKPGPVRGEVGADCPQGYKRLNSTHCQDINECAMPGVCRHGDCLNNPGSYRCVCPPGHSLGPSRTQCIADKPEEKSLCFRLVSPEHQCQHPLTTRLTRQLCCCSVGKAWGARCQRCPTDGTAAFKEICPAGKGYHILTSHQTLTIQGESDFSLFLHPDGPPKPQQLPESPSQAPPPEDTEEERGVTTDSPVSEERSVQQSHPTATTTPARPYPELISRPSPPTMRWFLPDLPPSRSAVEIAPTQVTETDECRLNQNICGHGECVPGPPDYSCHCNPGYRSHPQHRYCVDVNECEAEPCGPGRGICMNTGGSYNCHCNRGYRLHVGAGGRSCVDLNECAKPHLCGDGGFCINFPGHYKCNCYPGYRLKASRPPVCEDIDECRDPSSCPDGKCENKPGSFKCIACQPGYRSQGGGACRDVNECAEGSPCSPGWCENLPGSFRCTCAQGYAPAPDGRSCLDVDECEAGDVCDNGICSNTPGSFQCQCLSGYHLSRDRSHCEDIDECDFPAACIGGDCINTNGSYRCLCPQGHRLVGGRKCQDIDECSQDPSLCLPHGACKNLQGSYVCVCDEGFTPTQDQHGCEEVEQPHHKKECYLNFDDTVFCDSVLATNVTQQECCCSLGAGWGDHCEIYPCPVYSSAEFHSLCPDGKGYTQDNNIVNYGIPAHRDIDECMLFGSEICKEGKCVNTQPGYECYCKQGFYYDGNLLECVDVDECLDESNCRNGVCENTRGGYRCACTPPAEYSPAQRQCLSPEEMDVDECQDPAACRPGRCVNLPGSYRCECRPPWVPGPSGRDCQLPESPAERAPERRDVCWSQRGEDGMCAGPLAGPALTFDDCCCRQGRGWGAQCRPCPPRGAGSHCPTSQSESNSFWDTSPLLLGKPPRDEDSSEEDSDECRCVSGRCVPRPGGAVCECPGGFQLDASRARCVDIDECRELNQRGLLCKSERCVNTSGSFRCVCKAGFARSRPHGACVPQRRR
T4 sequence (P01137 30-390 limits assumed, chain 2 of 2): as the sequence (P01137 30-390 limits assumed, chain 2 of 2) above
T7 sequence (Q86YC3 19-650 limits assumed, chain 1 of 2): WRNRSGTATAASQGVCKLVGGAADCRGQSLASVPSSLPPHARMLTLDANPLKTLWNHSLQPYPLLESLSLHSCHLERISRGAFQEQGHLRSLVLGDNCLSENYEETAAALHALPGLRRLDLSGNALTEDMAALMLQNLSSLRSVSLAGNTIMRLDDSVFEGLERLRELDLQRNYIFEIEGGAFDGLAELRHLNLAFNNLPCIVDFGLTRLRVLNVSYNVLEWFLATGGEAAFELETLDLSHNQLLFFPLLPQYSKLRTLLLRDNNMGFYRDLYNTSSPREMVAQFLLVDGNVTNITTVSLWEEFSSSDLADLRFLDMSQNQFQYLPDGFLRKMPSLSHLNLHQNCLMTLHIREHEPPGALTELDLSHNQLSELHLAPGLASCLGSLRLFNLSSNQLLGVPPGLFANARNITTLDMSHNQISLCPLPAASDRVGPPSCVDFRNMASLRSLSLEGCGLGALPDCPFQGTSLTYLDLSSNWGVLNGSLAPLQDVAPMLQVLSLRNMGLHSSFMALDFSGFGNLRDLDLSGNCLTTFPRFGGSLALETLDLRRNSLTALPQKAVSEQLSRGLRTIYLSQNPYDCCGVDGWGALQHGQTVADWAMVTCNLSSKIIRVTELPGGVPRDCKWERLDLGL
T7 sequence (P01137 30-390 limits assumed, chain 2 of 2): as the sequence (P01137 30-390 limits assumed, chain 2 of 2) above
T1 sequence (P01137 30-390): as the sequence (P01137 30-390 limits assumed, chain 2 of 2) above

B1: SR-AB13 (antibody, IgG1, V domains shown)
VH: QLQLQESGPGLVKPSETLSLTCTVSGGSISSSSYYWGWIRQPPGKGLEWIGSISYSGSTYYNPSLKSRVTISVDTSKNQFSLKLSSVTAADTAVYYCARDPSYDSIAGMDVWGQGTTVTVSS
VL: DIQLTQSPSSLSASVGDRVTITCRASQSISSYLNWYQQKPGKAPKLLIYAASNLQSGVPSRFSGSGSGTDFTLTISSLQPEDFATYYCQQSFDFPFTFGGGTKVEIK
notes: Parent antibody; also called SR-13
By Kd is commonly meant the constant that tells how readily two partners part at equilibrium. Low readings indicate tighter binding, high ones weaker binding. With B1, the “IC50, endogenous hLTBP assay (CAGA12 luciferase)” value in test [1] and in test [3] was 4.83 nM throughout. The “IC50, mLTBP1 assay (CAGA12 luciferase)” value in test [2] and in [4] was 25.4 nM each time. Moreover, the Kd in test [5] is 39.2 nM; in test [6], 35.9 nM; in test [7] it was 59.5 nM; in [14] it was 148 nM; in test [15], 71 nM; in [16] it was 102 nM. The normalized response in [8] was 1.08 fraction of uninhibited binding; in test [9], 1.29 fraction of uninhibited binding; in test [10] it was 1.38 fraction of uninhibited binding; in test [11] it was 0.47 fraction of uninhibited binding. In addition, the binding result in test [12] and in [13] was “no binding (tested: 100 nM)” each time.

B2: SR-AB63-HuFab (Fab, V domains shown)
VH: B1 VH with S30R, G57A, S58T, R99G, D110Q
VL: B1 VL with F94W, F96L
notes: Human Fab
As usually defined, the koff is a measure of how fast the partners let go of each other. Read a low koff as slow dissociation. Usually kon stands for a measure of how fast the partners come together. Higher therefore signals faster complex formation. In the case of B2, the Kd in [17] was 0.127 nM; in [18], 0.000103 nM; in test [19], 349 nM; in test [20] it was 216 nM; in test [21], 0.03 nM; in [22], 0.1 nM. The off-rate (koff) in [17] amounted to 4.99e-05 s⁻¹; in test [18] it was 3.82e-08 s⁻¹; in [19], 0.00093 s⁻¹; in test [20], 0.00108 s⁻¹. Further, the kon in test [17] worked out at 394000 M⁻¹ s⁻¹; in test [18] it was 371000 M⁻¹ s⁻¹; in [19], 2660 M⁻¹ s⁻¹; in test [20], 5000 M⁻¹ s⁻¹.
